According to patent publication US20230203182A1 (NAVROGEN, published 2023):
Where a chain is given by its changes, count along the chain named. In names and notes the source's numbering stands.

T1: human CD20 on Ramos cells (human, UniProt P11836 1-297)
T1 construct: whole, on cells; also called MS4A1
T1 sequence (looked up): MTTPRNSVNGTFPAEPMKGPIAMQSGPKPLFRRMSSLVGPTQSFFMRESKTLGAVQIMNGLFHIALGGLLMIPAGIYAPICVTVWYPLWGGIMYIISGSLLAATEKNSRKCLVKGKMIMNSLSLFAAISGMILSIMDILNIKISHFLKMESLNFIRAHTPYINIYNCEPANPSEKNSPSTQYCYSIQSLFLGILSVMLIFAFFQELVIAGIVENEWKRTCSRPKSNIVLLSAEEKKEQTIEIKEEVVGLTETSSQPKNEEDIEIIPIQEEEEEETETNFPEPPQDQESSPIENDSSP

B1: RTX-MT clone 166 (antibody, human IgG1, kappa)
heavy: not shown
light: QIVLSQSPAILSASPGEKVTMTCRASSSVSYIHWFQQKPGSSPKPWIYATSNLASGVPVRFSGSGSGTSYSLTISRVEAEDAATYYCQQWTSNPPTFGGGTKLEIKRTVAAPSVFIFPPSDEQLKSGTASVVCLLNNFYPREAKVQWKVDNALQSGNSQESVTEQDSKDSTYSLSSTLTLSKADYEKHKVYACEVTHQGLSSPVTKSFNRGEC
notes: Biotinylated in the ELISAs; also called N109D+P131S+S136Y; triple mutant RTX-MT clone 166
B2: RTX-MT N109D+S136Y (antibody, human IgG1, kappa)
heavy: not shown
light: B1 light
B3: rituximab (parental antibody) (antibody, human IgG1, kappa)
heavy: not shown
light: B1 light
notes: IgG1-type anti-CD20 antibody; Biotinylated when used as probe in the CA125 and CD20-peptide ELISAs; also called RTX; RTX-WT
B4: RTX N109D (antibody, human IgG1, kappa)
heavy: not shown
light: B1 light
notes: also called RTX-MT N109D; RTX MT N109D
B5: RTX-MT clone 199 (antibody, human IgG1, kappa, V domains shown)
VH: QVQLQQPGAELVKPGASVKMSCKASGYTFTSYNMHWVKQTPGRGLEWIGAIYPGNGDTSYNQKFKGKATLTADKSSSTAYMQLSSLTSEDSAVYYCARSTYYGGDWYLNVWGAGTTVTVSA
VL: QIVLSQSPAILSASPGEKVTMTCRASSSVSYIHWFQQKPGSSPKPWIYATSNLASGVPVRFSGSGSGTSYSLTISRVEAEDAATYYCQQWTSNPPTFGGGTKLEIKR
notes: Biotinylated in the ELISAs
B6: RTX-MT clone 164 (antibody, human IgG1, kappa, V domains shown)
VH: B5 VH with G103C, L108F
VL: B5 VL
notes: Biotinylated in the ELISAs
B7: RTX-MT clone 148 (antibody, human IgG1, kappa, V domains shown)
VH: B5 VH with Y102F, L108F
VL: B5 VL
notes: Biotinylated in the ELISAs
B8: RTX-MT clone 198 (antibody, human IgG1, kappa, V domains shown)
VH: B5 VH with Y107C, L108F
VL: B5 VL
notes: Biotinylated in the ELISAs
B9: human complement protein C4B (other)
chain: KPRLLLFSPSVVHLGVPLSVGVQLQDVPRGQVVKGSVFLRNPSRNNVPCSPKVDFTLSSERDFALLSLQVPLKDAKSCGLHQLLRGPEVQLVAHSPWLKDSLSRTTNIQGINLLFSSRRGHLFLQTDQPIYNPGQRVRYRVFALDQKMRPSTDTITVMVENSHGLRVRKKEVYMPSSIFQDDFVIPDISEPGTWKISARFSDGLESNSSTQFEVKKYVLPNFEVKITPGKPYILTVPGHLDEMQLDIQARYIYGKPVQGVAYVRFGLLDEDGKKTFFRGLESQTKLVNGQSHISLSKAEFQDALEKLNMGITDLQGLRLYVAAAIIESPGGEMEEAELTSWYFVSSPFSLDLSKTKRHLVPGAPFLLQALVREMSGSPASGIPVKVSATVSSPGSVPEVQDIQQNTDGSGQVSIPIIIPQTISELQLSVSAGSPHPAIARLTVAAPPSGGPGFLSIERPDSRPPRVGDTLNLNLRAVGSGATFSHYYYMILSRGQIVFMNREPKRTLTSVSVFVDHHLAPSFYFVAFYYHGDHPVANSLRVDVQAGACEGKLELSVDGAKQYRNGESVKLHLETDSLALVALGALDTALYAAGSKSHKPLNMGKVFEAMNSYDLGCGPGGGDSALQVFQAAGLAFSDGDQWTLSRKRLSCPKEKTTRKKRNVNFQKAINEKLGQYASPTAKRCCQDGVTRLPMMRSCEQRAARVQQPDCREPFLSCCQFAESLRKKSRDKGQAGLQRALEILQEEDLIDEDDIPVRSFFPENWLWRVETVDRFQILTLWLPDSLTTWEIHGLSLSKTKGLCVATPVQLRVFREFHLHLRLPMSVRRFEQLELRPVLYNYLDKNLTVSVHVSPVEGLCLAGGGGLAQQVLVPAGSARPVAFSVVPTAATAVSLKVVARGSFEFPVGDAVSKVLQIEKEGAIHREELVYELNPLDHRGRTLEIPGNSDPNMIPDGDFNSYVRVTASDPLDTLGSEGALSPGGVASLLRLPRGCGEQTMIYLAPTLAASRYLDKTEQWSTLPPETKDHAVDLIQKGYMRIQQFRKADGSYAAWLSRGSSTWLTAFVLKVLSLAQEQVGGSPEKLQETSNWLLSQQQADGSFQDLSPVIHRSMQGGLVGNDETVALTAFVTIALHHGLAVFQDEGAEPLKQRVEASISKASSFLGEKASAGLLGAHAAAITAYALTLTKAPADLRGVAHNNLMAMAQETGDNLYWGSVTGSQSNAVSPTPAPRNPSDPMPQAPALWIETTAYALLHLLLHEGKAEMADQAAAWLTRQGSFQGGFRSTQDTVIALDALSAYWIASHTTEERGLNVTLSSTGRNGFKSHALQLNNRQIRGLEEELQFSLGSKINVKVGGNSKGTLKVLRTYNVLDMKNTTCQDLQIEVTVKGHVEYTMEANEDYEDYEYDELPAKDDPDAPLQPVTPLQLFEGRRNRRRREAPKVVEEQESRVHYTVCIWRNGKVGLSGMAIADVTLLSGFHALRADLEKLTSLSDRYVSHFETEGPHVLLYFDSVPTSRECVGFEAVQEVPVGLVQPASATLYDYYNPERRCSVFYGAPSKSRLLATLCSAEVCQCAEGKCPRQRRALERGLQDEDGYRMKFACYYPRVEYGFQVKVLREDSRAAFRLFETKITQVLHFTKDVKAAANQMRNFLVRASCRLRLEPGKEYLIMGLDGATYDLEGHPQYLLDSNSWIEEMPSERLCRSTRQRAACAQLNDFLQEYGTQGCQV
notes: also called enhancer protein

Target: T2, human CD16a (Fc-gamma activating receptor FCGR3A), biotinylated (human, UniProt P08637 17-208, limits assumed, biotinylated)
T2 construct: Soluble biotinylated probe in ELISA; construct not described; also called CD16a-biotin; Fc receptor
Experiment: CD16a ELISA, percentage of binding with CA125 versus no CA125 (FIG. 7A)

T2 sequence (P08637 17-208 limits assumed): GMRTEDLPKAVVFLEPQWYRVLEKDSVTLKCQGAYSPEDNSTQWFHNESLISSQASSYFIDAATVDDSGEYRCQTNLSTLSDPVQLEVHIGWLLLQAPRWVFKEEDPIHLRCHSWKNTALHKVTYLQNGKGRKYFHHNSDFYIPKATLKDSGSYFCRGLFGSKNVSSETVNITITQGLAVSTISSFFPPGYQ

binding result | Binder
binds | B1
binds | B2

Target: T1, human CD20 on Ramos cells
Experiment: cell-based fluorescent saturation binding on Ramos cells, Jurkat background subtracted, one-site nonlinear regression

Kd [nM] | Binder
20.6 | B3
30.5 | B4

Target: T3, human CA125/MUC16 protein (human, UniProt Q8WXI7 1-14451, limits assumed)
T3 construct: Soluble CA125 used at 15 KU/mL in ELISAs; also called soluble CA125
Experiment: ELISA, CA125-coated (15 KU/mL) and CD20 peptide-coated wells, biotinylated antibody
Source text: FIG. 4. […] Each of these antibodies were biotinylated and retested for CD20 and CA125 binding via ELISA. Briefly, antibodies were biotinylated using the EZ-Link™ Sulfo-NHS-Biotin (ThermoScientific) following the manufacturer’s instructions. Biotinylated antibodies where quantified by Nanodrop and validated for signal intensity using an anti-IgG ELISA capture assay to measure the signal intensity for each antibody. […] Wells were washed and then secondarily probed with streptavidin-HRP and quantified using TMB substrate as described above on a Varioskan plate reader at 450 nm. […] Any signal greater than a 20% decrease in CA125 was considered positive.

percent decrease in CA125 binding vs parental (ratio of CD20 to CA125 binding), selection criterion [%] | Binder
> 20 | B5
> 20 | B6
> 20 | B7
> 20 | B8

Target: T3, human CA125/MUC16 protein
Experiment: cell-based or functional assay

suppression of CDC activity by CA125 (Daudi cells) [%] | Binder
32 | B3
≤ 15 | B5
≤ 15 | B6
≤ 15 | B7
≤ 15 | B1
≤ 15 | B8

Target: T3, human CA125/MUC16 protein
Experiment: direct binding ELISA, CA125-coated wells, biotinylated C4B

binding result | Binder
no binding | B9
